We go through 41 variants from the Human Domainome abundance scans (Beltran et al. 2025).

± gives the uncertainty stated by the source.

The chains are these.
B1: PMS1 protein homolog 1, residues 572 to 637; numbered along this chain, P54277 (parent)
chain: KKPMSASALFVQDHRPQFLIENPKTSLEDATLQIEELWKTLSEEEKLKYEEKATKDLERYNSQMKR

Variants of B1 are the subject of this data set. In words: abundance fitness (aPCA) (normalised: wild type 0, dead -1); higher = more abundant; growth selection in yeast, the domain comes from the species named. The settings on record: Homo sapiens.
Turning to KKCMSASALFVQDHRPQFLIENPKTSLEDATLQIEELWKTLSEEEKLKYEEKATKDLERYNSQMKR [P3C], the abundance fitness is -0.358 ± 0.28. The value for KKNMSASALFVQDHRPQFLIENPKTSLEDATLQIEELWKTLSEEEKLKYEEKATKDLERYNSQMKR [P3N] was 0.031 ± 0.25; that for KKIMSASALFVQDHRPQFLIENPKTSLEDATLQIEELWKTLSEEEKLKYEEKATKDLERYNSQMKR [P3I] was -0.305 ± 0.45; that for KKTMSASALFVQDHRPQFLIENPKTSLEDATLQIEELWKTLSEEEKLKYEEKATKDLERYNSQMKR [P3T] was 0.049 ± 0.2.

For KKKMSASALFVQDHRPQFLIENPKTSLEDATLQIEELWKTLSEEEKLKYEEKATKDLERYNSQMKR [P3K], the abundance fitness is -0.368 ± 0.34. For KKWMSASALFVQDHRPQFLIENPKTSLEDATLQIEELWKTLSEEEKLKYEEKATKDLERYNSQMKR [P3W], the abundance fitness is -0.545 ± 0.29. As for KKMMSASALFVQDHRPQFLIENPKTSLEDATLQIEELWKTLSEEEKLKYEEKATKDLERYNSQMKR [P3M], the abundance fitness was -0.333 ± 0.4. Then KKSMSASALFVQDHRPQFLIENPKTSLEDATLQIEELWKTLSEEEKLKYEEKATKDLERYNSQMKR [P3S], with -0.605 ± 0.34. KKAMSASALFVQDHRPQFLIENPKTSLEDATLQIEELWKTLSEEEKLKYEEKATKDLERYNSQMKR [P3A]: the abundance fitness is -0.464 ± 0.19. In the case of KKPMSAKALFVQDHRPQFLIENPKTSLEDATLQIEELWKTLSEEEKLKYEEKATKDLERYNSQMKR [S7K], the abundance fitness stood at 0.069 ± 0.2. KKPMSADALFVQDHRPQFLIENPKTSLEDATLQIEELWKTLSEEEKLKYEEKATKDLERYNSQMKR [S7D]: the abundance fitness came to 0.036 ± 0.25. Take KKPMSAEALFVQDHRPQFLIENPKTSLEDATLQIEELWKTLSEEEKLKYEEKATKDLERYNSQMKR [S7E]: the abundance fitness was 0.017 ± 0.1. Turning to KKPMSACALFVQDHRPQFLIENPKTSLEDATLQIEELWKTLSEEEKLKYEEKATKDLERYNSQMKR [S7C], the abundance fitness was -0.28 ± 0.22. In the case of KKPMSALALFVQDHRPQFLIENPKTSLEDATLQIEELWKTLSEEEKLKYEEKATKDLERYNSQMKR [S7L], the abundance fitness was -0.087 ± 0.09.

In the case of KKPMSAHALFVQDHRPQFLIENPKTSLEDATLQIEELWKTLSEEEKLKYEEKATKDLERYNSQMKR [S7H], the abundance fitness was -0.144 ± 0.16. As for KKPMSAMALFVQDHRPQFLIENPKTSLEDATLQIEELWKTLSEEEKLKYEEKATKDLERYNSQMKR [S7M], the abundance fitness stood at 0.235 ± 0.25.

Turning to KKPMSAGALFVQDHRPQFLIENPKTSLEDATLQIEELWKTLSEEEKLKYEEKATKDLERYNSQMKR [S7G], the abundance fitness was -0.134 ± 0.083. On to KKPMSAFALFVQDHRPQFLIENPKTSLEDATLQIEELWKTLSEEEKLKYEEKATKDLERYNSQMKR [S7F], for which the abundance fitness was -0.108 ± 0.4. For KKPMSAAALFVQDHRPQFLIENPKTSLEDATLQIEELWKTLSEEEKLKYEEKATKDLERYNSQMKR [S7A], the abundance fitness is 0.007 ± 0.096. Then KKPMSCSALFVQDHRPQFLIENPKTSLEDATLQIEELWKTLSEEEKLKYEEKATKDLERYNSQMKR [A6C], with -0.281 ± 0.29; and KKPMSISALFVQDHRPQFLIENPKTSLEDATLQIEELWKTLSEEEKLKYEEKATKDLERYNSQMKR [A6I], with -1.17 ± 0.23.

For KKPMSESALFVQDHRPQFLIENPKTSLEDATLQIEELWKTLSEEEKLKYEEKATKDLERYNSQMKR [A6E], the abundance fitness is -0.607 ± 0.09. On to KKPMSKSALFVQDHRPQFLIENPKTSLEDATLQIEELWKTLSEEEKLKYEEKATKDLERYNSQMKR [A6K], for which the abundance fitness is -0.348 ± 0.17. In the case of KKPMSPSALFVQDHRPQFLIENPKTSLEDATLQIEELWKTLSEEEKLKYEEKATKDLERYNSQMKR [A6P], the abundance fitness is -0.38 ± 0.21. Then KKPMSMSALFVQDHRPQFLIENPKTSLEDATLQIEELWKTLSEEEKLKYEEKATKDLERYNSQMKR [A6M], with -0.704 ± 0.15; and KKPMSRSALFVQDHRPQFLIENPKTSLEDATLQIEELWKTLSEEEKLKYEEKATKDLERYNSQMKR [A6R], with -0.637 ± 0.072; and KKPMSGSALFVQDHRPQFLIENPKTSLEDATLQIEELWKTLSEEEKLKYEEKATKDLERYNSQMKR [A6G], with -0.306 ± 0.083.

As for KKPMSQSALFVQDHRPQFLIENPKTSLEDATLQIEELWKTLSEEEKLKYEEKATKDLERYNSQMKR [A6Q], the abundance fitness was -0.493 ± 0.18. As to KKPMSWSALFVQDHRPQFLIENPKTSLEDATLQIEELWKTLSEEEKLKYEEKATKDLERYNSQMKR [A6W], the abundance fitness was -1.87 ± 0.29. Turning to KKPMSDSALFVQDHRPQFLIENPKTSLEDATLQIEELWKTLSEEEKLKYEEKATKDLERYNSQMKR [A6D], the abundance fitness is -0.665 ± 0.25. Regarding KKPMSYSALFVQDHRPQFLIENPKTSLEDATLQIEELWKTLSEEEKLKYEEKATKDLERYNSQMKR [A6Y], the abundance fitness is -0.925 ± 0.45. KKPMSSSALFVQDHRPQFLIENPKTSLEDATLQIEELWKTLSEEEKLKYEEKATKDLERYNSQMKR [A6S]: the abundance fitness is -0.195 ± 0.22.

Take KKPMSTSALFVQDHRPQFLIENPKTSLEDATLQIEELWKTLSEEEKLKYEEKATKDLERYNSQMKR [A6T]: the abundance fitness is -0.646 ± 0.12. Regarding SKPMSASALFVQDHRPQFLIENPKTSLEDATLQIEELWKTLSEEEKLKYEEKATKDLERYNSQMKR [K1S], the abundance fitness was -0.602 ± 0.2.

As to VKPMSASALFVQDHRPQFLIENPKTSLEDATLQIEELWKTLSEEEKLKYEEKATKDLERYNSQMKR [K1V], the abundance fitness is -0.191 ± 0.28. Then FKPMSASALFVQDHRPQFLIENPKTSLEDATLQIEELWKTLSEEEKLKYEEKATKDLERYNSQMKR [K1F], with -0.498 ± 0.26; and GKPMSASALFVQDHRPQFLIENPKTSLEDATLQIEELWKTLSEEEKLKYEEKATKDLERYNSQMKR [K1G], with -0.225 ± 0.11; and EKPMSASALFVQDHRPQFLIENPKTSLEDATLQIEELWKTLSEEEKLKYEEKATKDLERYNSQMKR [K1E], with -0.022 ± 0.14. Then MKPMSASALFVQDHRPQFLIENPKTSLEDATLQIEELWKTLSEEEKLKYEEKATKDLERYNSQMKR [K1M], with -0.057 ± 0.26; and CKPMSASALFVQDHRPQFLIENPKTSLEDATLQIEELWKTLSEEEKLKYEEKATKDLERYNSQMKR [K1C], with 0.184 ± 0.43.

For YKPMSASALFVQDHRPQFLIENPKTSLEDATLQIEELWKTLSEEEKLKYEEKATKDLERYNSQMKR [K1Y], the abundance fitness is -0.174 ± 0.3.
